According to patent US20060280804A1:

Target: angiotensin converting enzyme (ACE, EC 3.4.15.1, Sigma)
Assay: cell-based or functional assay

Substance: ovalbumin grade VI (99% purity, Sigma), unhydrolysed (from UniProt P01012 2-386)
- ACEI activity, IC50: > 750 µg/mL
